Experiments:
Experiment in all cases: yeast two-hybrid
[1] = target: T1, GTPase-activating protein 1 (aa 1308-1606) (UniProt P46940 1308-1606)
T1 construct: range 1308-1606; also called IQGAP1; IQGAP
T1 sequence (looked up): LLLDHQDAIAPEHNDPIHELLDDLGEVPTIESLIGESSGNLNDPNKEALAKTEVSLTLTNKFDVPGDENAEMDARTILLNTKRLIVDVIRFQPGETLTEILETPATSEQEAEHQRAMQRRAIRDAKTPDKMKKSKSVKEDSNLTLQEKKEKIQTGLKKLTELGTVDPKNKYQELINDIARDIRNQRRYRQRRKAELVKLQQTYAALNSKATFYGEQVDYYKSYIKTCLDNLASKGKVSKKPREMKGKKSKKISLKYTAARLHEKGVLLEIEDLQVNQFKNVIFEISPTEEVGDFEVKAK

[2] = target: T2, intersectin 1 (aa 387-611) (UniProt Q15811 387-611)
T2 construct: range 387-611
T2 sequence (looked up): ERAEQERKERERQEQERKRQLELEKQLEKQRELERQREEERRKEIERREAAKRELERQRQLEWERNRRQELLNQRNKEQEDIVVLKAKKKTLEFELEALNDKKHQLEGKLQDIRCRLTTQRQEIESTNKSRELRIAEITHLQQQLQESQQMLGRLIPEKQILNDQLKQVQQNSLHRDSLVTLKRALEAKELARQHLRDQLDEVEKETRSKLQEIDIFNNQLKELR

[3] = target: T3, mitotic spindle coiled-coil related protein (aa 668-895) (UniProt Q96R06 668-895)
T3 construct: range 668-895
T3 sequence (looked up): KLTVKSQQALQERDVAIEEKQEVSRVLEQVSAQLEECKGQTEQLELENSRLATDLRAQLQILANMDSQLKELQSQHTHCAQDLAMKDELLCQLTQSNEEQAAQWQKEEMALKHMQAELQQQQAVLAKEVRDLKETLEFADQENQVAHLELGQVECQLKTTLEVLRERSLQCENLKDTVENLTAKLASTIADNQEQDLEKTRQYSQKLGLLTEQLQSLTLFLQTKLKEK

[4] = target: T4, GTPase-activating protein 1 (aa 1392-1657) (UniProt P46940 1392-1657)
T4 construct: range 1392-1657; also called IQGAP1; IQGAP
T4 sequence (looked up): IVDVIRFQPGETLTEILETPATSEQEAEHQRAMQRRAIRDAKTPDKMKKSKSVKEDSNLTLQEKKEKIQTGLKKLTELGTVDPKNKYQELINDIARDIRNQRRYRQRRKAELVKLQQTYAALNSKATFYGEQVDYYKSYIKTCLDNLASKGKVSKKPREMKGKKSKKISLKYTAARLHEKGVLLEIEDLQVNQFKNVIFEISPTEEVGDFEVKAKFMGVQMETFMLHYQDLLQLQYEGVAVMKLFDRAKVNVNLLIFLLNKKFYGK

pallid (aa 21-172) = target: T5, pallid (aa 21-172) (UniProt Q9UL45 21-172)
T5 construct: range 21-172
T5 sequence (looked up): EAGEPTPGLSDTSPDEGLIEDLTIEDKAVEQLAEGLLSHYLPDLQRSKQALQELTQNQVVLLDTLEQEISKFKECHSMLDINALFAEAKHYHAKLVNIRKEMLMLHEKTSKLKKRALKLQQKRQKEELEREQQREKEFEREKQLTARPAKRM

[5] = target: T6, mitotic spindle coiled-coil related protein (aa 723-1012) (UniProt Q96R06 723-1012)
T6 construct: range 723-1012
T6 sequence (looked up): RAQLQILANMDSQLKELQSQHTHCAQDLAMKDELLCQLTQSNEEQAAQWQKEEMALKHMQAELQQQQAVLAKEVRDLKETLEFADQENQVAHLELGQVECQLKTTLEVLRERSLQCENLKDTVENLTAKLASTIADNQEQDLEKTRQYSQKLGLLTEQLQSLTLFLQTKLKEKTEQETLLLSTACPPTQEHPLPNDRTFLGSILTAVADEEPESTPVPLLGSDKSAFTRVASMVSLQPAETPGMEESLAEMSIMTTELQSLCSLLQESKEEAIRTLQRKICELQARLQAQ

[6] = target: T7, mitotic spindle coiled-coil related protein (aa 701-1082) (UniProt Q96R06 701-1082)
T7 construct: range 701-1082
T7 sequence (looked up): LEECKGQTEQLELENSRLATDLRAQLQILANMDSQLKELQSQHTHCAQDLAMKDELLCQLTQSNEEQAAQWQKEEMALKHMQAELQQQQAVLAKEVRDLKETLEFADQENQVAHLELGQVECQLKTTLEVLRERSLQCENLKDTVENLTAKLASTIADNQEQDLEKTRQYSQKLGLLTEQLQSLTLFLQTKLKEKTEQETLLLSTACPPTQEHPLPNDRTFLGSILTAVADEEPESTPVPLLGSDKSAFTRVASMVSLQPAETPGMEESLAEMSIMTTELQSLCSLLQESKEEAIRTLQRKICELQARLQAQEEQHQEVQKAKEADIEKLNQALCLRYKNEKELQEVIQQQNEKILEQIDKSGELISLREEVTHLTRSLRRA

[7] = target: T8, GTPase-activating protein 1 (aa 1413-1567) (UniProt P46940 1413-1567)
T8 construct: range 1413-1567; also called IQGAP1; IQGAP
T8 sequence (looked up): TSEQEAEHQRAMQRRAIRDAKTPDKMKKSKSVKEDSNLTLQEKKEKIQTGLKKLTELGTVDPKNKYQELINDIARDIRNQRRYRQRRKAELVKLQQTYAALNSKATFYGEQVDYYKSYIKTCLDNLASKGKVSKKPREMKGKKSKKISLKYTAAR

[8] = target: T9, hook2 protein (aa 290-555) (UniProt Q96ED9 290-555)
T9 construct: range 290-555
T9 sequence (looked up): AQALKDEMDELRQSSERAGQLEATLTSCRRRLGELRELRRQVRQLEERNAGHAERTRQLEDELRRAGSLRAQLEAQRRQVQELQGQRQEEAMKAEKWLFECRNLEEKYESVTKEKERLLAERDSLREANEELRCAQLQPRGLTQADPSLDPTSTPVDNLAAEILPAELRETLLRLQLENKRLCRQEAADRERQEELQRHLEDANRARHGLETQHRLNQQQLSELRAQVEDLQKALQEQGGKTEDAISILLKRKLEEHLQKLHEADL

Measured: binding result

B1: Tsg101 (aa 240-391) (other, human, UniProt Q99816 240-390, looked up)
chain: WRMKEEMDRAQAELNALKRTEEDLKKGHQKLEEMVTRLDQEVAEVDKNIELLKKKDEELSSALEKMENQSENNDIDEVIIPTAPLYKQILNLYAEENAIEDTIFYLGEALRRGVIDLDVFLKHVRLLSRKQFQLRALMQKARKTAGLSDLY
notes: range 240-391; also called C-terminal fragment of Tsg101; amino acid residues 240-390
binds: all assays above

From patent US7202329 (MYRIAD GENETICS, dated 2007)
